Results: patent US20090297438A1 (published 2009)

Key:
[1] = target: T1, human prostate specific membrane antigen (PSMA) on LNCaP prostate cancer cells (human, UniProt Q04609 1-750); experiment: cell-based or functional assay
[2] = target: T1, human prostate specific membrane …; experiment: radioligand competition on LNCaP cells: unlabeled antibody varied against a fixed concentration of 125I-2A10
Experimental: (§1) LNCaP cells were obtained from ATCC(CRL-1740) and grown in RPMI media containing 10% fetal bovine serum (FBS). The cells were trypsinized and washed once in Tris based binding buffer (24 mM Tris pH 7.2, 137 mM NaCl, 2.7 mM KCl, 2 mM Glucose, 1 mM CaCl₂, IMM MgCl₂, 0.1% BSA) and the cells were adjusted to 2×10⁶ cells/ml in binding buffer. Millipore plates (MAFB NOB) were coated with 1% nonfat dry milk in water and stored a 4° C. overnight. The plates were washed three times with 0.2 ml of binding buffer. Twenty-five microliters of buffer alone was added to the wells (non-specific binding). A fixed concentration of ¹²⁵I-anti-PSMA antibody was added to all wells in a volume of 25 μl. Varying concentrations of unlabeled antibody was added to wells in a volume of 25 μl and 25 μl of LNCaP cells (2×10⁶ cells/ml) in binding buffer were added to all wells. The plates were incubated for 2 hours at 200 RPM on a shaker at 4° C. At the completion of the incubation the Millipore plates were washed three times with 0.2 ml of cold wash buffer (24 mM Tris pH 7.2, 500mM NaCl, 2 mM KCl, 2 mM Glucose, 1 mM CaCl₂, 1 mM MgCl₂, 0.1% BSA). The filters were removed and counted in a gamma counter. Evaluation of equilibrium binding was performed using single site binding parameters with the Prism software (San Diego, Calif.). An isotype control antibody was used as a negative control. […]

[3] = target: T1, human prostate specific membrane …; experiment: radioligand competition on LNCaP cells: unlabeled antibody varied against a fixed concentration of 125I-7F12
Experimental: as §1

[4] = target: T1, human prostate specific membrane …; experiment: flow cytometry on LNCaP cells, FITC-labeled anti-human IgG detection
Experimental: The human PSMA-expressing prostate cancer cell line LNCaP was used to determine the specificity of anti-PSMA human monoclonal antibodies by flow cytometry. Binding of the 2F5, 2A10, and 2C6 anti-PSMA human monoclonal antibodies was assessed by incubating the LNCaP cells with the anti-PSMA human monoclonal antibodies at different concentrations. The cells were washed and binding was detected with a FITC-labeled anti-human IgG Ab. Flow cytometric analyses were performed using a FACScan flow cytometry (Becton Dickinson, San Jose, Calif.). The human anti-PSMA monoclonal antibody 7F12 (as described in PCT Publication WO 03/064606) was used as a positive control and a non-PSMA specific isotype control antibody was used as a negative control. The results are depicted in FIG. 9. The anti-PSMA human monoclonal antibodies 2F5, 2A10, and 2C6 bound specifically to the PSMA-expressing LNCaP cells.

[5] = target: T2, PSMA immunopurified from LNCaP cells (human, UniProt Q04609 1-750); experiment: ELISA on PSMA immunopurified from LNCaP cells, HRP goat anti-human IgG (kappa chain-specific) detection
T2 construct: also called purified PSMA; immunopurified PSMA
T2 sequence (Q04609 whole entry): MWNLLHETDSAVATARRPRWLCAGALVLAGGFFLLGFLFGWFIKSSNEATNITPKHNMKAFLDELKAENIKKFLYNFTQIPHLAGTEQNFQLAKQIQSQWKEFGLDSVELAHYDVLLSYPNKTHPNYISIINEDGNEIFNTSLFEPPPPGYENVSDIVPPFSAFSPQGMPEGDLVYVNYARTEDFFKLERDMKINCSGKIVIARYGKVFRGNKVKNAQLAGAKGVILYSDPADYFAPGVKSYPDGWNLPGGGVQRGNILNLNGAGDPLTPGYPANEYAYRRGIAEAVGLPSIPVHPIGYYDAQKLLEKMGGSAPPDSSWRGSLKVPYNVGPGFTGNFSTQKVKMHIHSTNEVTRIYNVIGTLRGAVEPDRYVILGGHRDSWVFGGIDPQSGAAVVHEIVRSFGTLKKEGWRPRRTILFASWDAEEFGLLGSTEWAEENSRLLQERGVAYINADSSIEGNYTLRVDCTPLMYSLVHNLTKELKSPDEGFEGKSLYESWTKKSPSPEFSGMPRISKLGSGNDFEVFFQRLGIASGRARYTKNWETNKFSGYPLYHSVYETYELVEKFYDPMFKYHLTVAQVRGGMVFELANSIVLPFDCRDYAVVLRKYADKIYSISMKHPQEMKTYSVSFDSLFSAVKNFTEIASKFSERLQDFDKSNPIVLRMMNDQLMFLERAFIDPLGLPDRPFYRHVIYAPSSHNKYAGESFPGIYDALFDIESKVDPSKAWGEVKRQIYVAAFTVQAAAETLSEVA
Experimental: A comparison of anti-PSMA antibodies on binding to immunopurified PSMA was performed by standard ELISA to examine the specificity of binding for PSMA.
PSMA was immunopurified from LNCaP cells and tested for binding against the anti-PSMA human monoclonal antibodies 1C3, 2A10, 2F5, and 2C6. Standard ELISA procedures were performed. The anti-PSMA human monoclonal antibodies were added at a concentration of 5 μg/ml and titrated down at 1:2 serial dilutions. Goat-anti-human IgG (kappa chain-specific) polyclonal antibody conjugated with horseradish peroxidase (HRP) was used as secondary antibody. The human anti-PSMA monoclonal antibody 7F12 was used as a positive control and a blank was used as a negative control. The anti-PSMA human monoclonal antibodies 2A10 and 2F5 bound with high specificity to PSMA.

[6] = target: T1, human prostate specific membrane …; experiment: Scatchard analysis, 125I-labelled antibody on LNCaP cells
Experimental: The binding affinity of the 2A10 antibody for the PSMA-expressing prostate cancer LNCaP cell line was tested using a Scatchard analysis.
LNCaP cells were obtained from ATCC(CRL-1740) and grown in RPMI media containing 10% fetal bovine serum (FBS). The cells were trypsinized and washed once in Tris based binding buffer (24 mM Tris pH 7.2, 137 mM NaCl, 2.7 mM KCl, 2mM Glucose, 1 mM CaCl₂, 1 mM MgCl₂, 0.1% BSA) and the cells were adjusted to 2×10⁶ cells/ml in binding buffer. Millipore plates (MAFB NOB) were coated with 1% nonfat dry milk in water and stored a 4° C. overnight. The plates were washed three times with 0.2 ml of binding buffer. Fifty microliters of buffer alone was added to the maximum binding wells (total binding). Twenty-five microliters of buffer alone was added to the control wells (non-specific binding). Varying concentration of ¹²⁵I-anti-PSMA antibody was added to all wells in a volume of 25 μl . Varying concentrations of unlabeled antibody at 100 fold excess was added in a volume of 25 μl to control wells and 25 μl of LNCaP cells (2×10⁶ cells/ml) in binding buffer were added to all wells. The plates were incubated for 2 hours at 200 RPM on a shaker at 4° C. […] The filters were removed and counted in a gamma counter. […]

T1 sequence (Q04609 whole entry): as above

Binder | EC50 (read off the curve) [4] | EC50 (read off the curve) [5] | binding result [5] | other results
anti-PSMA HuMAb antibody 2A10 conjugated to a toxin (antibody, V domains shown) VH: EVQLVQSGAEVKKPGESLKISCKGSGYSFTSNWIGWVRQMPGKGLEWMGIIYPGDSDTRYSPSFQGQVTISADKSISTAYLQWSSLKASDTAMYYCARQTGFLWSSDLWGRGTLVTVSS VL: AIQLTQSPSSLSASVGDRVTITCRASQDISSALAWYQQKPGKAPKLLIYDASSLESGVPSRFSGYGSGTDFTLTINSLQPEDFATYYCQQFNSYPLTFGGGTKVEIK | – | – | – | EC50, 3H-thymidine incorporation cell proliferation assay, continuous wash [1]: 0.0643 nM; EC50, 3H-thymidine incorporation cell proliferation assay, three-hour wash [1]: 0.157 nM
anti-PSMA human monoclonal antibody 2A10 (antibody, V domains shown, also called anti-PSMA HuMAb 2A10) VH: EVQLVQSGAEVKKPGESLKISCKGSGYSFTSNWIGWVRQMPGKGLEWMGIIYPGDSDTRYSPSFQGQVTISADKSISTAYLQWSSLKASDTAMYYCARQTGFLWSSDLWGRGTLVTVSS VL: AIQLTQSPSSLSASVGDRVTITCRASQDISSALAWYQQKPGKAPKLLIYDASSLESGVPSRFSGYGSGTDFTLTINSLQPEDFATYYCQQFNSYPLTFGGGTKVEIK | ~0.7 µg/mL | ~0.04 µg/mL | – | IC50 (read off the curve) [2]: 1 to 2 nM; IC50 (read off the curve) [3]: ~1 nM; Kd [6]: ~0.8 nM
anti-PSMA human monoclonal antibody 2F5 (antibody, V domains shown) VH: EVQLVQSGAEVKKPGESLKISCKGSGYSFTSNWIGWVRQMPGKGLEWMGIIYPGDSDTRYSPSFQGQVTISADKSISTAYLQWNSLKASDTAMYYCARQTGFLWSFDLWGRGTLVTVSS VL: AIQLTQSPSSLSASVGDRVTITCRASQDISSALAWYQQKPGKAPKLLIYDASSLESGVPSRFSGSGSGTDFTLTISSLQPEDFATYYCQQFNSYPLTFGGGTKVEIKI | ~0.8 µg/mL | ~0.04 µg/mL | – | –
anti-PSMA human monoclonal antibody 1C3 (antibody, V domains shown) VH: QVQLVESGGGVVQPGRSLRLSCAASGFTFSSYAMHWVRQAPGKGLEWVAVISYDGNNKYYADSVKGRFTISRDNSKNTLYLQMNSLRAEDTAVYYCARAVPWGSRYYYYGMDVWGQGTTVTVSS VL: AIQLTQSPSSLSASVGDRVTITCRASQGISSALAWYQQKSGKAPKLLIFDASSLESGVPSRFSGSGSGTDFTLTISSLQPEDFATYYCQQFNSYPLTFGGGTKVEIK | – | – | binds | –
anti-PSMA human monoclonal antibody 2C6 (antibody, V domains shown) VH: EVQLVQSGSEVKKPGESLKISCKGSGYSFTNYWIGWVRQMPGKGLEWMGIIYPGDSDTRYSPSFQGQVTISADKSISTAYLQWSSLKASDTAMYYCASPGYTSSWTSFDYWGQGTLVTVSS VL: EIVLTQSPATLSLSPGERATLSCRASQSVSSYLAWYQQKPGQAPRLLIYDASNRATGIPARFSGSGSGTDFTLTISSLEPEDFAVYYCQQRSNWPLFTFGPGTKVDIK | – | – | binds | binding result [4]: binds
